Measurements as given in paper PMC7809593 (2021).

Biological target: CXCL12α (Homo sapiens, UniProt P48061, CXCR4 fused to Kate2)
Assay: receptor internalization sensor

B1: CXCR4 (protein)
chain: MEGISIYTSDNYTEEMGSGDYDSMKEPCFREENANFNKIFLPTIYSIIFLTGIVGNGLVILVMGYQKKLRSMTDKYRLHLSVADLLFVITLPFWAVDAVANWYFGNFLCKAVHVIYTVNLYSSVLILAFISLDRYLAIVHATNSQRPRKLLAEKVVYVGVWIPALLLTIPDFIFANVSEADDRYICDRFYPNDLWVVVFQFQHIMVGLILPGIVILSCYCIIISKLSHSKGHQKRKALKTTVILILAFFACWLPYYIGISIDSFILLEIIKQGCEFENTVHKWISITEALAFFHCCLNPILYAFLGAKFKTSAQHALTSVSRGSSLKILSKGKRGGHSSVSTESESSSFHSS
Kd: ~2 nM
